Test system: CD4 T cells
Experiment: CD4 T cell activation and differentiation in vitro with Dkk-1 or Wnt3a
Format: cell-based, mice
Excerpt: FIG. 5, comprising FIG. 5A through FIG. 5E, depicts results of experiments showing Dkk-1 induces TH2 cell polarization. FIG. 5A depicts lungs harvested for immunohistochemistry of CD3 (dark brown), CD41 (blue) and isotype control antibodies of lungs from Dkk-1^d/d mice and their wildtype littermate controls challenged with HDM extract allergen. Orange arrowheads in the images indicate co-localized CD3 T cells with CD41^+ platelets. FIG. 5B depicts ELISA analysis of Dkk-1 from plasma samples from Dkk-1^d/d mice (n=5) collected 24 hours after challenge with 50 μg HDM. FIG. 5C depicts ELISA analysis of splenic CD4 T cells from 6-8 week-old C57BL/6 mice were activated with anti-CD3 and anti-CD28 antibodies (Act) with or without Dkk-1 (30 ng/ml unless indicated) for 4 days. FIG. 5D depicts flow cytometry analysis of splenic CD4 T cells from 6-8 week-old C57BL/6 mice were activated with anti-CD3 and anti-CD28 antibodies (Act) with or without Dkk-1 (30 ng/ml unless indicated) for 4 days. FIG. 5E depicts ELISA analysis of naïve CD4 T cells stimulated anti-CD3 and anti-CD28 antibodies for 96 hr with or without Dkk-1.
FIG. 6, comprising FIG. 6A through FIG. 6E, depicts results of experiments showing Dkk-1 induces TH2 cytokines in various T cell differentiation conditions. FIG. 6A depicts flow cytometry and ELISA analysis of naïve CD4 T cells were stimulated under TH1 polarization conditions for 96 hours with or without Dkk-1. FIG. 6B depicts flow cytometry and ELISA analysis of naïve CD4 T cells were stimulated under TH2 polarization conditions for 96 hours with or without Dkk-1. FIG. 6C depicts flow cytometry analysis of Foxp3, IL-17A, and IL-10 expression in splenic naïve CD4 T cells isolated and differentiated into iTreg for 5 days with 100 U/ml IL-2 and 1.5 ng/ml TGF-β with or without 30 ng/ml and 3 ng/ml of Dkk-1 treated during the culture. FIG. 6D depicts Gata-3 expression levels of splenic naïve CD4 T cells from 8 week-old C57BL/6 mice treated with Dkk-1 with varying doses of Dkk-1 (50, 30, 7.5 ng/ml) or Wnt3a (20% v/v) for 96 hours in the presence of anti-CD3 and anti-CD28 antibody stimulation. FIG. 6E depicts qPCR results of Tcf7 and Lef1 mRNA harvested from splenic naïve CD4 T cells from 8 week-old C57BL/6 mice stimulated with or without Dkk-1 (30 ng/ml) for 96 hours. All results were statistically non-significant. All experiments are a representative of two to three independent experiments. Student's t-test or one way-ANOVA analysis with Bonferonni's post-hoc test were performed. Small horizontal lines and error bars indicate the mean (±s.e.m.). ***, p<0.0001, **, p<0.005, *, p<0.05.
FIG. 8, comprising FIG. 8A through FIG. 8G, depicts results of experiments showing Dkk-1 induces IL-10 in CD4 T cells via SGK-1 and p38 MAPK. FIG. 8A depicts ELISA analysis of naïve CD4 T cell differentiated into TH2 cells with or without Dkk-1 (30 ng/ml), SGK-1 inhibitor (2 μM) or p38 inhibitor (10 μM) for 96 hours. FIG. 8B depicts flow cytometry analysis of human naïve CD4 T cells (CD4^+CD25^−CD45RA^+) transduced with SGK-1 shRNA and selected with puromycin (0.5 μg/ml) for 48 hours. The selected cells were stimulated with anti-CD3 mAb (OKT3) and anti-CD28 mAb with or without Dkk-1 for 96 hr. For the last 5 hr of culture, stimulation cocktail (PMA/Ionomycin/Brefeldin A/Monensin) was added. FIG. 8C depicts intracellular staining with antibodies recognizing phospho-S6 kinase of splenic CD4^+CD25^− cells from 6 week-old C57BL/6 mice were isolated and activated with anti-CD3 and anti-CD28 mAb (2 μg/ml) with or without Dkk-1 (25 ng/ml) for indicated time points. FIG. 8D depicts intracellular staining with antibodies recognizing phospho-4E-BP1 of splenic CD4^+CD25^− cells from 6 week-old C57BL/6 mice were isolated and activated with anti-CD3 and anti-CD28 mAb (2 μg/ml) with or without Dkk-1 (25 ng/ml) for indicated time points. […]

B1: Dkk-1: Wnt antagonist Dickkopf-1 protein, expressed in CHO cells, added to cells or injected into mice (protein, UniProt O94907 32-266, looked up)
Dickkopf-related protein 1: TLNSVLNSNAIKNLPPPLGGAAGHPGSAVSAAPGILYPGGNKYQTIDNYQPYPCAEDEECGTDEYCASPTRGGDAGVQICLACRKRRKRCMRHAMCCPGNYCKNGICVSSDQNHFRGEIEETITESFGNDHSTLDGYSRRTTLSSKMYHTKGQEGSVCLRSSDCASGLCCARHFWSKICKPVLKEGQVCTKHRRKGSHGLEIFQRCYCGEGLSCRIQKDHHQASNSSRLHTCQRH
With B1 the “TH1 and TH17-associated cytokines (IFN-γ, IL-17A and IL-17F)” value (CD4 T cell activation in vitro) was “not induced”, the IFN-γ expression (TH1 polarization conditions, 96 hours) was “suppressed” and the IL-4 expression (TH2 cell differentiation, dose-dependent) was “enhanced”. For the same molecule, the “TGF-β-mediated Foxp3 expression” value (iTreg differentiation with IL-2 and TGF-β, 5 days) was “inhibiting”, the “Gata-3+ and c-Maf+ CD4 T cell population” value (in vitro, Dkk-1 30 ng/ml) was “increased” and the “amount of Dkk-1 that could induce Gata-3 expression” value (naïve CD4 T cells, 96 hours, similar to Wnt3a) was “up to 30 ng/ml”. For the same molecule, the “TCF-1 or Lef expression” value (naïve CD4 T cells, Dkk-1 30 ng/ml, 96 hours, qPCR) was “did not induce”, the “levels of Dkk-1 that inhibited Gata-3 expression” value (naïve CD4 T cells, non-physiologic high levels) was > 50 ng/mL and the “phosphorylation of S6 kinase or 4E-BP-1” value (splenic CD4+CD25- cells, Dkk-1 25 ng/ml) was “not altered”. For the same molecule, the “IL-4, IL-10 and IL-13” value (total CD4 T cell activation in vitro, Dkk-1 30 ng/ml, 4 days) was “induced”.
